Results published in patent US20090217392A1.
One block for each substance: values may come before it.

Experiments:
[1] = target: αvβ3 and αvβ5 integrins on cells that express both (M21, A375S2/A375S.2, HUVEC) (human) (UniProt P06756); assay: flow cytometry on M21 cells; FITC-goat anti-human Fc-labeled CNTO95 at 2 µg/mL, saline instead of competitor
[2] = target: αvβ3 and αvβ5 integrins on cells that express both (M21, A375S2/A375S.2, HUVEC) (human) (UniProt P06756); assay: cell-based or functional assay
[3] = target: αvβ3 and αvβ5 integrins on cells that express both (M21, A375S2/A375S.2, HUVEC) (human) (UniProt P06756); assay: flow cytometry on M21 cells; FITC-goat anti-human Fc-labeled CNTO95 at 20 µg/mL, saline instead of competitor
[4] = target: human αvβ3 integrin on cells (human) (UniProt P06756); assay: flow cytometry on M21 cells; signal of the competitor FITC-labeled CNTO95 at 2 µg/mL; row antibody at 20 µg/mL; set-up: % Positive: reference not given here
[5] = target: human αvβ3 integrin on cells (human) (UniProt P06756); assay: flow cytometry on M21 cells; signal of the competitor FITC-labeled CNTO95 at 20 µg/mL; row antibody at 20 µg/mL
[6] = target: human αvβ5 integrin on cells (human) (UniProt P06756); assay: flow cytometry on M21 cells; signal of the competitor FITC-labeled CNTO95 at 2 µg/mL; row antibody at 20 µg/mL; set-up: % Positive: reference not given here
[7] = target: human αvβ5 integrin on cells (human) (UniProt P06756); assay: flow cytometry on M21 cells; signal of the competitor FITC-labeled CNTO95 at 20 µg/mL; row antibody at 20 µg/mL
[8] = scale: % of cell adhesion in the absence of antibody

MCF (median channel fluorescence) [1]: 4.33 | minimal concentration for complete inhibition of MDAMB435L2 cell adhesion to vitronectin [2]: 1.5 µg/mL | A375S.2 cell adhesion to fibrin, antibody 10 µg/ml [2, 8]: 43.3 | A375S.2 cell adhesion to fibrinogen, antibody 10 µg/ml [2, 8]: 11.4 | A375S.2 cell adhesion to gelatin, antibody 10 µg/ml [2, 8]: 23.2 | A375S.2 cell adhesion to vitronectin, antibody 10 µg/ml [2, 8]: 1.4 | HUVEC adhesion to fibrin, antibody 10 µg/ml [2, 8]: 45.1 | HUVEC adhesion to fibrinogen, antibody 10 µg/ml [2, 8]: 34.5 | HUVEC adhesion to gelatin, antibody 10 µg/ml [2, 8]: 54.8 | HUVEC adhesion to vitronectin, antibody 10 µg/ml [2, 8]: 3.3 | MCF (median channel fluorescence) [3]: 14.3
Substance: CNTO 95 (antibody)

% Positive [4]: 110% | MCF (median channel fluorescence) [4]: 4.78 | % Positive [5]: 93% | MCF (median channel fluorescence) [5]: 13.3
Substance: LM609 (antibody)

% Positive [6]: 112% | MCF (median channel fluorescence) [6]: 4.87 | % Positive [7]: 101% | MCF (median channel fluorescence) [7]: 14.5
Substance: P1F6 (antibody)

% Positive [4]: 132% | MCF (median channel fluorescence) [4]: 5.73 | % Positive [5]: 103% | MCF (median channel fluorescence) [5]: 14.7
Substance: m7E3 IgG (antibody)
